Data on one substance can be found in publication PMC5857711.

This assay has as its target serotonin receptor 1b (5-HT1b), CFP- or YFP-tagged, for FRET (human) (UniProt P28222).
Sequence of UniProt P28222 (P28222 whole entry): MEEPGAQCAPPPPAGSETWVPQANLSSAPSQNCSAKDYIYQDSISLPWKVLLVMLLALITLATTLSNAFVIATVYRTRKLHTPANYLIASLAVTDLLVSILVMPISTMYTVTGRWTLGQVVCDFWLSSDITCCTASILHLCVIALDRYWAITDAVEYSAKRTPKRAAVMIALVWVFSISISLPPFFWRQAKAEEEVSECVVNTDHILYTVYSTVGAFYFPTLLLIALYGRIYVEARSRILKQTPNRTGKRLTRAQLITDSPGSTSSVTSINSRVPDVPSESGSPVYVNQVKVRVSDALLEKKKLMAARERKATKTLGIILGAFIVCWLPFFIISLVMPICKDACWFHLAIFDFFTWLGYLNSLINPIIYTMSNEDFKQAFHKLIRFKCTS

The substance “βTAAR1 (TAAR1 with the first nine amino acids of the β2-adrenoreceptor at its N-terminus), CFP- or YFP-tagged, for FRET (from UniProt P07550 1-9)” showed a Gi/o signaling: reduction of forskolin-induced cAMP (AlphaScreen) by 10 μM 5-HT in HEK293 co-expressing TAAR1 and 5-HT1b (50% for 5-HT1b alone) of 40%.
